In patent publication US20200347146A1 (I MAB BIOPHARMA US, published 2020):

T1: CD73 on the surface of A375 cells (UniProt P21589 27-549, limits assumed)
T1 construct: whole, on cells; also called cell surface CD73
T1 sequence (looked up): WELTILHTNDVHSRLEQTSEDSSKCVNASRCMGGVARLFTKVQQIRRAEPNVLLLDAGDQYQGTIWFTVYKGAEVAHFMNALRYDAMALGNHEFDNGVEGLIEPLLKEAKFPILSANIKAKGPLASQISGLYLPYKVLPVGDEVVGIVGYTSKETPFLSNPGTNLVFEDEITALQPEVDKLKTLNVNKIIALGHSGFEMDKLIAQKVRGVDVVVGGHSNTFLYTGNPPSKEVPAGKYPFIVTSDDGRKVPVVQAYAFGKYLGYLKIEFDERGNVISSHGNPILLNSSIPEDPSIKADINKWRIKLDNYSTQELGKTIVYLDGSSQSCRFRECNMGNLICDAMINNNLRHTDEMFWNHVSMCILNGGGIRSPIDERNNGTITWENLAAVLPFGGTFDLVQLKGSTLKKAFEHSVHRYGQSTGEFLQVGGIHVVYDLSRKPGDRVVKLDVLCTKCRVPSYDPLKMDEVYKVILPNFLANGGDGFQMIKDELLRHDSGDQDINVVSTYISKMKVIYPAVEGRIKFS

T2: human CD73 protein (soluble) (human, UniProt P21589 27-549, limits assumed)
T2 construct: its species is not restated there; also called soluble CD73; 5'-nucleotidase
T2 sequence (looked up): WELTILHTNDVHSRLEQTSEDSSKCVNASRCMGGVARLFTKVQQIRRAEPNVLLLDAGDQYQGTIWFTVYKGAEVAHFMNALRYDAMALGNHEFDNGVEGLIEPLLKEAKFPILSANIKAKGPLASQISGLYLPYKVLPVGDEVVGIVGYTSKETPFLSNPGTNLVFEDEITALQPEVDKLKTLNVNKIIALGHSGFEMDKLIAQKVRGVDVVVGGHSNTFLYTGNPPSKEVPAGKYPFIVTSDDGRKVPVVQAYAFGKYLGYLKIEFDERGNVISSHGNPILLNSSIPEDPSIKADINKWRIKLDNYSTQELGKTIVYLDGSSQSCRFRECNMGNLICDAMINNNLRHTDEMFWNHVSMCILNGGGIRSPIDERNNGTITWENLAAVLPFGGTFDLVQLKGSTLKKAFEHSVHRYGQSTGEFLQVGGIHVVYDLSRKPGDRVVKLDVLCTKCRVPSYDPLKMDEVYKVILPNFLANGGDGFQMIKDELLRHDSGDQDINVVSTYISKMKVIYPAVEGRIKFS


Assays:
[1] = biological target: T1, CD73 on the surface of A375 cells; test: flow cytometry on A375 cells, AF633 anti-human Fc detection
Method: A375 cells that constitutively expressed CD73 on the surface were used in this example. 1×10⁵ A375 cells/well were suspended in FACS buffer. Antibodies diluted from 10 nM by 2-fold, 100 μl into each well, 4° C. for 30 min. The samples were washed with FACS buffer for 1×. AF633-anti hu Fc was added for binding for 30 min at 4° C., and washed with FACS buffer for 1×.

[2] = biological target: T2, human CD73 protein (soluble); test: ELISA, human CD73 coated on the plate, anti-human Fc HRP detection
Method: Plated were coated with 100 μl of 1 μg/ml human CD73 protein overnight. The samples were blocked with 1% BSA in PBST for 1 hr, washed with PBST 3×. […] Binding with anti-hu Fc HRP was at 1:10000 in PBST, RT for 30 min, wash with PBST 3×. 100 μl of TMB and 100 μl of HCl were then added.

[3] = biological target: T3, human PD-L1 protein (soluble) (human, UniProt Q9NZQ7 19-238, limits assumed); test: ELISA, human PD-L1 coated on the plate, anti-human Fc HRP detection
T3 construct: also called soluble PD-L1

[4] = biological target: T4, human PD-L1 on PD-L1 positive Raji cells (human, UniProt Q9NZQ7 19-290); test: flow cytometry on PD-L1 positive Raji cells, AF633 anti-human Fc detection
T4 construct: whole, on cells; also called cell surface PD-L1; PD-L1+ cells
T4 sequence (Q9NZQ7 19-290): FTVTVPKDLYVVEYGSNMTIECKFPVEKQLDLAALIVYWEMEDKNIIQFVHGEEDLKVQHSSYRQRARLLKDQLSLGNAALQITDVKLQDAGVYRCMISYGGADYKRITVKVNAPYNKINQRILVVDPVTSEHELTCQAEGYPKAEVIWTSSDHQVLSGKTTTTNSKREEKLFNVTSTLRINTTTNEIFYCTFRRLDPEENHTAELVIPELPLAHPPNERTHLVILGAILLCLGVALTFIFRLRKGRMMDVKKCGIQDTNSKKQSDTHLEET

T3 sequence (Q9NZQ7 19-238 limits assumed): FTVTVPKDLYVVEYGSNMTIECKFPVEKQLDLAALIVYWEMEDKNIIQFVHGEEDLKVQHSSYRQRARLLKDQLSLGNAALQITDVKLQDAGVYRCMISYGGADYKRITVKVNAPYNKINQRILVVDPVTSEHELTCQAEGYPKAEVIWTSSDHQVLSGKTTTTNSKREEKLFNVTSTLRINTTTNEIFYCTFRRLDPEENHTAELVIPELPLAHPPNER

Row | Binder | binding result [1] | binding result [2] | binding result [3] | binding result [4]
1 | hu309 (monospecific anti-CD73 antibody with the 309 VH and 309 VL) (antibody, V domains shown, it was detected with anti-human Fc) VH: EVQLQESGPGLVKPSETLSLTCAVSGYSITSGYYWNWIRQPPGKKLEWMGYINYGGSNGYNPSLKSRITISRDTSKNQFSLKLSSVTAADTAVYYCARDYDAYYEALDDWGQGTTVTVSS VL: EIVLSQSPATLSLSPGERATLSCRASSRVNYMHWYQQKPGQSPRPWISATSNLASGVPARFSGSGSGTSYTLTISSLEPEDFAVYYCQQWSSNPPTFGGGTKVEIK | binds | binds |  | 
2 | H12(PDL1) (monospecific anti-PD-L1 antibody with the H12 VH and H12 VL) (antibody, V domains shown, it was detected with anti-human Fc; also called PD-L1 antibody H12) VH: EVQLVESGGGLVQPGGSLRLSCAASGFTFSSYDMSWVRQAPGKSLEWVATISDAGGYIYYRDSVKGRFTISRDNAKNSLYLQMNSLRDEDTAVYICARELPWRYALDYWGQGTTVTVSS VL: DIQMTQSPSSLSASVGDRVTITCKASQDVTPAVAWYQQKPGKAPKLLIYSTSSRYTGVPSRFSGSGSGTDFTFTISSLQPEDIATYYCQQHYTTPLTFGQGTKLEIK |  |  | binds | binds
